Measured values reported in US9951359B2, “Heat-stable, FE-dependent alcohol dehydrogenase for aldehyde detoxification” (UT-BATTELLE, LLC, priority 2013, dated 2018).
Where two headings read alike, the source gives them in different places.

Assays:
[1] = system: Thermoanaerobacter pseudethanolicus 39E (Teth39E); experiment: Growth of Teth39E with furan aldehydes (optical density at 600 nm); assay type: cell-based; settings: for specific growth rate: 65° C.; for IC50: Thermoanaerobacter pseudethanolicus, read-out: furan aldehyde concentration which resulted in 50% inhibition of growth (IC50)
Description: Teth39E (DSMZ 2355) was purchased from Deutsche Sammlung von Mikroorganismen and Zellkulturen GmbH (DSMZ). Anaerobic growth medium was prepared anaerobically by a modified Hungate technique and consisted of 4.5 mM KCl, 4.7 mM NH4Cl, 2.5 mM MgSO4.7H2O, 1.0 mM NaCl, 0.7 mM CaCl2.2H2O, […] resazurin, 2.8 mM cysteine-HCl, 6.0 mM NaHCO3, 1 mM potassium phosphate buffer (pH 6.8), 10 mM 3-(N-morpholino)-propanesulfonic acid (pH 6.8), 1× Wolfe's trace minerals, 1× Wolfe's vitamin supplement, 0.1% (w/v) yeast extract, and 40 mM glucose [Miller and Wolin (1974) Appl. Microbiol. 27:985-987; Wolin et al. (1963) J. Biol. Chem. 238:2882-2886]. Furan aldehydes were added from degassed concentrated stock solutions. Cultures were grown at 65° C. from a 1% inoculum in Balch tubes (10 mL) or 125 mL serum bottles (50 mL) Cell growth was monitored by optical density at 600 nm, either directly in the Balch tube using a Spectronic 200 spectrophotometer (Thermo Fisher Scientific, Waltham, Mass.) or as 200 μL samples transferred to a 96-well plate and read on a Synergy Mx plate reader (BioTek, Winooski, Vt.). All growth experiments were performed in triplicate.
Lower concentrations of furfural (10 and 20 mM) and 5-hydroxymethylfurfural (10 mM) stimulated growth of Teth39E, with increased cell yields after 12 h for both (see FIGS. 1A and 1B). […] The IC50 for 5-HMF was between 20 and 30 mM after both 12 and 24 h.

[2] = system: protein encoded by the Teth39_1597 locus (bdhA); experiment: Proteome comparison of Teth39E grown in the presence or absence of furfural; assay type: cell-based, Thermoanaerobacter pseudethanolicus 39E; settings: Teth39E grown in the presence of 15 mM furfural
Description: To identify the enzymes responsible for furfural and 5-HMF conversion, the proteomes were compared for strain Teth39E grown in the presence or absence of 15 mM furfural.

[3] = system: BdhA (Teth39_1597); experiment: Optimal temperature and pH of purified BdhA enzyme (butyraldehyde, NADPH); assay type: biochemical, Thermoanaerobacter pseudethanolicus 39E
Description: The optimal temperature for BdhA activity was determined from purified enzyme as follows. A 1 liter culture of E. coli BL21 (DE3) harboring the pET30a-BdhA expression construct (see FIG. 6A) was grown to mid-log phase and induced with 0.4 mM IPTG and allowed to incubate for 16 h at 30° C. with shaking at 250 rpm. The induced cells were harvested via centrifugation at 5,000×g for 20 min at 4° C. and washed 3 times with 40 mL ice-cold phosphate buffered saline (PBS) at pH 7.2 and placed on ice. The cell pellet was resuspended in binding buffer (20 mM sodium phosphate, 500 mM NaCl, 20-40 mM imidazole, pH 7.4) containing 0.2 mg/mL lysozyme, 20 μg/mL DNAse, 1 mM MgCl2, 1 mM PMSF and stirred for 30 min at room temperature. The cells were then subjected to 5×2 min rounds of sonication (Branson Sonifier 450 with microtip, duty cycle at 30%) while kept in an ice water bath. The lysate was centrifuged at 7,500×g for 20 min at 4° C. and the supernatant was transferred to a new 50 mL conical tube. […] For determining the optimal temperature for BdhA, 1 mL assays containing 100 mM phosphate buffer (pH 7.5), 20 mM butyraldehyde, and 0.25 mM NADPH were monitored for loss of absorbance at 340 nm for 20 seconds at 30-90° C. in 5° C. intervals. […]
The optimum pH was also determined for BdhA by using butyraldehyde as the substrate and NADPH as the cofactor. […]

[4] = system: BdhA (Teth39_1597); experiment: Aldehyde reductase enzyme assay with whole cell lysates of E. coli overexpressing BdhA (NAD(P)H oxidation at 340 nm); assay type: biochemical, Thermoanaerobacter pseudethanolicus 39E; settings: for specific activity with NADPH as a cofactor / BdhA Aldehyde Activities (specific activity): whole cell lysate; for BdhA Aldehyde Activities (specific activity): 60° C.; for BdhA Aldehyde Activities (specific activity) / Specific activity: aerobic
Description: Teth39E genomic DNA was isolated using the Wizard Genomic DNA Purification kit (Promega, Madison, Wis.). The bdha gene was PCR amplified using Phusion polymerase (New England Biolabs, Ipswich, Mass.) and cloned into pET30a (EMD Millipore, Billerica, Mass.) behind 6× His- and S-tags. Expression plasmids were transformed in BL21 (DE3) E. coli according to the manufacturer's protocol (Invitrogen, Grand Island, N.Y.). Cells were grown in 50 mL 2×YT medium at 37° C. to OD600 of 0.8-1.0, then induced with 100 μM isopropyl-β-D-thiogalactopyranoside and switched to 30° C. for 16 h. Cells were harvested at 4° C. (3,000×g, 30 min), washed in 50 mL 100 mM sodium phosphate buffer, pH 7 (buffer A), and re-suspended in 5 mL buffer A. Enzyme assays were performed aerobically at 60° C. with whole cell lysates and specific activity was determined by measuring the change in absorbance at 340 nm due to oxidation of NADPH or NADH.
Cell suspension (450 μL) was added to 0.1 mm zirconia beads (300 μL) and vortexed 4×60 sec with 30 sec on ice in between. Samples were centrifuged (14,000×g, 2 min) and the resulting supernatant was used for enzyme assays.
For the enzyme assays, Buffer A (1 mL), 10 mM NAD(P)H (25 μL), and 400 mM aldehyde (50 μL) were added to a 2 mL quartz cuvette, sealed with a butyl stopper, and equilibrated to 60° C. Assays were read at 340 nm (DU 800) for 150 sec to establish a baseline slope before whole cell lysate was added (1-5 μL). Cuvettes were inverted once to mix and read an additional 450 sec. The decrease in absorbance over time was calculated and the baseline slope was subtracted. NAD(P)H concentration was determined using the extinction coefficient (NADH: 6220 M^−1 cm ^−1, NADPH: 6270 M^−1 cm^−1) and specific activity was calculated as the change in μmoles NAD(P)H/min/mg of whole cell lysate protein. Protein concentration was determined using the Bradford assay (Bio-Rad, Hercules, Calif.) with bovine serum albumin as a standard. Specific activity was measured for the pET30a vector (control) and overexpressed Teth39_1597 (BdhA) with acetaldehyde, butyraldehyde, isobutyraldhyde, furfural, and 5-HMF. Furfural was also assayed under anaerobic conditions. BdhA activity was compared to the vector-only control.

## O=Cc1ccco1 [furfural]
[1]; 10 mM furan aldehyde
  specific growth rate: 0.52 ± 0.03 h⁻¹
[1]; 20 mM furan aldehyde
  specific growth rate: 0.43 ± 0.03 h⁻¹
[1]; after 12 h
  IC50: 30 mM
[1]; after 24 h
  IC50: 30 to 40 mM
[2]
  expression of Teth39_1597 protein upregulated: approximately 7 fold

## O=Cc1ccc(CO)o1 [5-HMF, 5-hydroxymethyl furfural]
[1]; 10 mM furan aldehyde
  specific growth rate: 0.51 ± 0.03 h⁻¹
[1]; after 12 h
  IC50: 20 to 30 mM
[1]; after 24 h
  IC50: 20 to 30 mM

B1: BdhA: heat-stable, NADPH- and iron-dependent alcohol dehydrogenase cloned from Thermoanaerobacter pseudethanolicus 39E (SEQ ID NO: 2) (protein, listed as Thermoanaerobacter pseudethanolicus)
chain: MMKFEFYNPTRLIFGAGSLGQLGKVVNQYGKKALLVIGGGSVKKSGAFDRAVASLKAAGVLVVEFSGVEPNPRLSTVVRASELAKKEACDVVIGMGGGSVMDASKVIAASVLYEGDPKDMLVRAGKAPRLPERALPIITVPTLAATGSEMNNGAVITIDDEGEKLKTFVQAEVLYPRVAVVDPELTMTVPKNHTAFGVCDIITHVTEGYFNGIDGTPLQDRFAEGVILTVLEWGPKAVSDGSDLEARTQVQWASIVALNGWVQVGTNGAYPVHMIEHTLSALYDIPHGAGLAVVNPAWMRFAARFRPERFAQFAQRIFGLTATGKDTLSLAMEGIDKFEEFLRSIGCPTRLSELGIGEITEEMLFRYAEETLKVLQDEEGRLPGRPSLRKEDIVEILRMAM
[3]; 20 mM butyraldehyde, 0.25 mM NADPH, pH 7.5, 30-90° C.
  optimal temperature for BdhA activity: 75 °C
[3]; butyraldehyde, NADPH, buffers pH 4-10
  optimum pH (optimal relative activity): 8.0 pH units
[4]; NADH as cofactor
  activity above the vector control using NADH as the cofactor: No activity was detected
[4]; butyraldehyde as substrate
  specific activity with NADPH as a cofactor: at least 14 μmole/min/mg
[4]; butyraldehyde, NADPH
  activity against butyraldehyde: approximately 14.58±3.57 μmoles/min/mg
[4]; expressed in E. coli, various aldehydes
  specific activity with NADPH as a cofactor: at least 0.5 μmole/min/mg
[4]; substrate 5-HMF, NADPH
  BdhA Aldehyde Activities (specific activity): 10.06 ± 0.80
[4]; substrate acetaldehyde, NADPH
  BdhA Aldehyde Activities (specific activity): 4.54 ± 0.76
[4]; substrate butyraldehyde, NADPH
  BdhA Aldehyde Activities (specific activity): 14.58 ± 3.57
[4]; substrate furfural, NADPH
  BdhA Aldehyde Activities (specific activity): 4.97 ± 0.17
[4]; substrate isobutyraldehyde, NADPH
  BdhA Aldehyde Activities (specific activity): 0.63 ± 0.29
[4]; with 5-HMF, NADPH
  Specific activity: 10.06±0.80 U
[4]; with furfural, NADPH
  Specific activity: 4.97±0.17 U
